Data as given in patent publication US11311610B2, “Immune-modulating agents and uses therefor” (UNIVERSITY OF TECHNOLOGY SYDNEY, priority 2010, dated 2022).

B1: FhHDM-1: 90-residue polypeptide from F. hepatica, Helminth Defense Molecule-1 (SEQ ID NO:24); recombinant form minus N-terminal signal peptide, expressed in E. coli (protein, listed as Fasciola hepatica)
chain: MRFIVLLCLAEVLLAAYVEARPSEESREKLRESGRKMVKALRDAVTKAYEKARDRAMAYLAKDNLGEKITEVITILLNRLTDRLEKYAGN

Experiments:
LPS-binding ELISA = assay: LPS-binding ELISA; design: species or system E. coli; details: for binding to immobilised LPS: 0.02-2 μg/well on LPS-coated plate (100 ng/well)
Method: (§1) FIG. 9 is a graphical representation showing LPS neutralization by FhHDM-1. The ability of FhHDM-1 (Δ), FhHDM-1 p1 (●) or FhHDM-1 p3 (▪) to bind to LPS was investigated by (A) incubating a range of concentrations of proteins (0.02-2 μg/well) in an LPS-coated (100 ng/well) microtitre plate. Bound peptides were detected by ELISA using rabbit anti-FhHDM-1 as a primary antibody. (B) FhHDM-1 or derived peptides (0.1 μg) were incubated in the presence of LPS (0.05-5 μg/well) and bound peptides measured as described above. Binding of peptides to the LPS-immobilized plates was expressed as a percentage of that measured for 2 μg (for panel A) or 0.1 μg (for panel B) of FhHDM-1. Data are the means±SD from three separate experiments. (C) FhHDM-1 and FhHDM-1 p3 but not FhHDM-1 p1 reduced the interaction between LPS and LBP as effectively as LL-37. LPS-coated microtitre plates were incubated with 5 μg/well of LL-37, FhHDM-1 or derived peptides for 1 h prior to the addition of 10% human sera in PBS. Interaction of LBP with LPS was measured by ELISA using an anti-LBP primary antibody and expressed as a percentage of that detected for 10% sera in the absence of added peptides. Data are the mean±SD of three separate experiments. Statistical significance was calculated using the student t-test and represent a comparison to the binding of 10% sera to immobilized LPS. (D) Binding of FITC-conjugated LPS to RAW264.7 cells was inhibited by LL-37, FhHDM-1 and peptides. […] The binding of FITC-LPS was analyzed by flow cytometry. LPS binding was expressed as a percentage of the mean fluorescence obtained for the addition of FITC-LPS to cells in the absence of peptides. […] Two hours later, sera was collected and serum levels of TNF and (F) IL-10 measured by ELISA. (G) Peritoneal macrophages were isolated, cultured unstimulated in media overnight and then levels of TNF and (H) IL-10 in the culture measured by ELISA. […]
The ability of FhHDM-1 and derived peptides to bind LPS from E. coli 0111:B4 was determined by ELISA using rabbit anti-FhHDM-1 as a primary antibody (FIG. 9A). […]

[1] = tested on: interaction of LPS with LPS-binding protein (LBP); assay: Assay for the interaction of LPS with LBP (ELISA); design: species or system mouse; details: 5 μg/well, 1 h before 10% sera; ELISA with anti-LBP
Method: as §1
The ability of FhHDM-1 and derived peptides to block the interaction of LPS with LPB was assessed by ELISA using an anti-LBP primary antibody. […]

Row | Molecule | binding to immobilised LPS (LPS-binding ELISA) | interaction between LPS and LBP [1] | binding to free LPS in solution (competition with immobilised LPS) (LPS-binding ELISA; 0.1 μg/well with LPS 0.05-5 μg/well)
1 | KARDRAMAYLAKDNLGEKITEVITILLNRL (FhHDM-1 peptide 1 comprising a truncated amphipathic helix contained in FhHDM-1) [FhHDM-1 p1, peptide in which the amphipathic helix is truncated] | did not bind to LPS | did not block | 
2 | B1 | bound to LPS in a concentration-dependent manner | significantly reduced | bound to free LPS in solution
